Residue numbers refer to the chain shown, from its start.
B1: 79E3E3: rat anti-α11β1 mAb; VH SEQ ID NO: 145, VL SEQ ID NO: 146 (antibody, V domains shown)
VH: MDWLWNLLFLMVVAQSAQAQIQLVQSGPEVKKPGESVKISCKASGYTFTDYAMNWVKQAPGNGLKWMGWINTQTGKPTYADDFKQRFVFSLETSARTTYLQINNLNIEDTATYFCTRLGTGNTKGFAYWGQGTLVTVSS
VL: MESQTHVLISLLLCVSGTCGDILINQSPASLTVSAGERVTMSCKSSQSLLYSENNQDYLAWYQQKPGQFPKLLIYGASNRHTGVPDRFTGSGSGTDFTLTISSVQAEDLADYYCEQTYRYPFTFGSGTKLEIK
B2: 8-I14: mouse anti-α11β1 mAb; VH SEQ ID NO: 109, VL SEQ ID NO: 110 (antibody, V domains shown)
VH: EVQLQQSGPELVKPGASVKKSCKASGYTFTDYYMHWVKQKPGQGLEWIGKIYPGSGNTHYNEKFKGKATLTADKSSSTAYMQLSSLTSEDSAVYFCATNYYGYRAMNYWGQGSSVTVSS
VL: DIHLTQSPSSLSASLGERISLTCRASQDIYISLNWFQQKPDGTIKLLIYGTSSLDSGVPKRFSGSRSGSDYSLTISSLESEDFADYYCLQYASSPYTFGGGTKLEIK
B3: 8-P20: mouse anti-α11β1 mAb; VH SEQ ID NO: 105, VL SEQ ID NO: 106 (antibody, V domains shown)
VH: KVMLVESGGALVKPGGSLKLSCVASGFTFSNYAMSWVRQTPEKRLEWVATISSGGYYTYYPDSVKGRFTISRDNARNTLFLQMSSLRSEDTAMFYCAREDDYGRYSYTMDYWGQGTSVTVSS
VL: DVVMTQTPLSLPVSLGDQVSISCRCSQSLVHSNGNTYLHWYLQKPGQSPQLLIYKISNRFSGVPDRFSGSGSGTDFTLKISRVEAEDLGVYFCSQSTHVPYTFGGGTELEIK
B4: 8-J17: mouse anti-α11β1 mAb; VH SEQ ID NO: 113, VL SEQ ID NO: 114 (antibody, V domains shown)
VH: QVQLQQSGAELAKPGASVKMSCKASGYTFTNYWMHWVKQRPGQGLEWIGYINPNNGYTEYNQRFKDKATLTADRSSTTAYMQLSSLTSEDSAVYYCARSDIITTDYWGQGTTLTVSS
VL: B3 VL with V19A, C25S, H31Y, Q50K, I56V, Y101W, E108K
B5: 9-G05: mouse anti-α11β1 mAb; VH SEQ ID NO: 103, VL SEQ ID NO: 104 (antibody, V domains shown)
VH: EVQLQQSGPELVKPGASVKIPCKASGYTFPDYNMDWVKQSHGKSLEWIGYINPDNGGTIYNQKFKGKATLTVDKSSSTAYMELRSLTSEDTAVYYCARLDSSGYGYYAMDYWGQGTSVTVSS
VL: DIVLTQSPASLAVSLGQRATISCRASESVDNYGISFMHWYQQKPGQPPKLLIYRASNLDSEIPARFSGSGSRTDFTLTIDPVETDDVATYYCQQSYKDPRTFGGGTKLEIK
B6: 8H8E9: rat anti-α11β1 mAb; VH SEQ ID NO: 149, VL SEQ ID NO: 150 (antibody, V domains shown)
VH: MAVLVLLLCLVTFPSCALSQVQLKESGPGLVQPSQTLSLTCTVSGFSLTSNSVSWVRQAPGKGLEWMGAIWSGGSTDYNSALKSRLSISRDTSKSQVFLKMNSLQTEDTAIYFCTRSHWEPFDYWGQGVMVTVSS
VL: MESQTQALISLLLWVYGTCGDIVMTQSPFSLAVSEGEMVTINCKSSQGLLSSGNQKNYLAWYQQRPGQSPKLLIYYASTRQSGVPDRFIGGGSGTDFTLTISDVQAEDLADYYCLQHYSYPPTFGSGTKLEIK
B7: 6E5C11: rat anti-α11β1 mAb; VH SEQ ID NO: 151, VL SEQ ID NO: 152 (antibody, V domains shown)
VH: B6 VH with K24R, S54T, A59P, G73D, A81T, N102S
VL: B6 VL with F29L, M38T, I41M, G48S, L50F, R65K, G91S, A106T, S119N
B8: 9-E16: mouse anti-α11β1 mAb; VH SEQ ID NO: 111, VL SEQ ID NO: 112 (antibody, V domains shown)
VH: EVQLQQSGPELVKPGASVKISCKASGYTFTDYYMHWVKQKPGQGLEWIGEIYPGSGNPYYNEKFKGKATLTADKSSSSAYMQLSSLTSEDSAVYFCARTSYGRVGTGFAYWGQGTLVTVSA
VL: NFVMTQTPLSLPVSLGDQASISCRSSQSLLHSNGNTYLHWYLQKPGQSPKLLIYKVSNRFSGVPDRFSGSGSGTDFTLKINRVETEDLGIYFCSQSSHVPTFGAGTKLELK

Experiments:
mouse α11β1 = mouse α11β1 (Mus musculus, UniProt P61622); test: ELISA binding to recombinant mouse α11β1; details: for Murine α11β1 ELISA: binding Yes/No
mouse α11β1, sequence (P61622 23-1141 limits assumed): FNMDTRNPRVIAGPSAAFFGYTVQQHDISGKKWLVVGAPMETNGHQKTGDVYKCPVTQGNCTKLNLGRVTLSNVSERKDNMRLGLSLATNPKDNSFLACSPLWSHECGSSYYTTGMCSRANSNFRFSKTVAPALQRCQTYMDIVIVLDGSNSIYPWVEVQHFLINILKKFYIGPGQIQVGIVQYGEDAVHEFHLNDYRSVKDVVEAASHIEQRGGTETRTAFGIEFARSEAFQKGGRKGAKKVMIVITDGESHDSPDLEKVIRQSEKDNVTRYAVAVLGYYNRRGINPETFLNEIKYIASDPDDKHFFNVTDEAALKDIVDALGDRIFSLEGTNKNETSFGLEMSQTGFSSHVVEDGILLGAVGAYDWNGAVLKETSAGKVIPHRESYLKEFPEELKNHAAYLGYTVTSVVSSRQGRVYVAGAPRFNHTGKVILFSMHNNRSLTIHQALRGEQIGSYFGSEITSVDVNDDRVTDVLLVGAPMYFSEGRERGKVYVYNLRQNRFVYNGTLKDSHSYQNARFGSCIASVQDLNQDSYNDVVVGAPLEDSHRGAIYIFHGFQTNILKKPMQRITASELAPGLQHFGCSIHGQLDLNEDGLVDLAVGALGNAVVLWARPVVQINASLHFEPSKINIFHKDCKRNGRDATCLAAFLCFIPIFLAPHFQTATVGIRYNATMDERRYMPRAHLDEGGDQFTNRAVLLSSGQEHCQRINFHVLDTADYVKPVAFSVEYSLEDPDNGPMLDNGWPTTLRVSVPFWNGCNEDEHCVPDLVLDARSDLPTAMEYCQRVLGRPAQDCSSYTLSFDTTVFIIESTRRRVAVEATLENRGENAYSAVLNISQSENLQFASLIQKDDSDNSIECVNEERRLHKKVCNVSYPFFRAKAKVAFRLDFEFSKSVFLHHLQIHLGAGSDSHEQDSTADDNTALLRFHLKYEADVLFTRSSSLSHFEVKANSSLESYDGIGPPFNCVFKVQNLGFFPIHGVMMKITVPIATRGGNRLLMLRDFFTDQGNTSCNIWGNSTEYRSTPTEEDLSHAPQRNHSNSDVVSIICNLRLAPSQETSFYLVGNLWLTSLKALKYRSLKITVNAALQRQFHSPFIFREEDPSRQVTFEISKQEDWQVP
mouse α11β1, sequence (P09055 21-728 partner limits assumed): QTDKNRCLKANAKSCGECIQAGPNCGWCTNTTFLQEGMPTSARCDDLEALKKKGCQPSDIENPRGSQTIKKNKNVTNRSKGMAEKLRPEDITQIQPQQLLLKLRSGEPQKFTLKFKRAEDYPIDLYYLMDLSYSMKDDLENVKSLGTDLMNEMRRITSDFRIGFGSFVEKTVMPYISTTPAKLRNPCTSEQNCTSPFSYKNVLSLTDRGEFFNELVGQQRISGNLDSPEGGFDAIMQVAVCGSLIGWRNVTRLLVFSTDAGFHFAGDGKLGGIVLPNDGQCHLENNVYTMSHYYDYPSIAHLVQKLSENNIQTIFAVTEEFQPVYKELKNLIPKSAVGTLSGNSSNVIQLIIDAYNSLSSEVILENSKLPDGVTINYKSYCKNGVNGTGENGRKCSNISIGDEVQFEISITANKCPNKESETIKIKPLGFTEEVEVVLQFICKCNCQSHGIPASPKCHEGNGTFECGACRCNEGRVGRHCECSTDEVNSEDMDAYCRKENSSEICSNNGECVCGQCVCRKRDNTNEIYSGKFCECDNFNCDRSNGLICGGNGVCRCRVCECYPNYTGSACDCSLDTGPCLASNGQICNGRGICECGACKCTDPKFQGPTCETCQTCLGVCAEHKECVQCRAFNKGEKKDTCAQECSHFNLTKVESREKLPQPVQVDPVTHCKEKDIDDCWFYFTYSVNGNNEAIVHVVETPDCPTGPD
Method: 0.25 μg/mL of target antigen (recombinant human or mouse α11β1) was plated in a 96-well plate over night at 4° C. Plates were washed (PBS with 0.1% Tween-20), blocked (PBS with 2% BSA and 0.05% Tween-20) for 1 hour at room temperature and incubated with a range of antibody concentrations for 1 hour at room temperature. Subsequently, plates were washed and incubated with biotinylated anti-rabbit/mouse/human IgG in a 1:1000 dilution buffer and incubated for 1 hour at room temperature. After washing the plates, Streptavidin HRP was added at 1:200 in dilution buffer and incubated for 1 hour at room temperature. Ultra TMB ELISA substrate solution was added and the plates incubated for 5 minutes on a plate shaker. The reaction was stopped by adding stop solution to each well and plates were read at 450 nm.

[1] = target: T1, α11β1 expressed on the surface of CHO-K1 cells (Homo sapiens, UniProt Q9UKX5); test: FACS antibody binding to CHO-K1 cells expressing human α11; details: for CHO-K1 FACS: binding Yes/No; for CHO-K1 binding EC50 (in words): FACS
T1 construct: expressed in transfected cells; host or cells: CHO-K1
T1 sequence (Q9UKX5 23-1188): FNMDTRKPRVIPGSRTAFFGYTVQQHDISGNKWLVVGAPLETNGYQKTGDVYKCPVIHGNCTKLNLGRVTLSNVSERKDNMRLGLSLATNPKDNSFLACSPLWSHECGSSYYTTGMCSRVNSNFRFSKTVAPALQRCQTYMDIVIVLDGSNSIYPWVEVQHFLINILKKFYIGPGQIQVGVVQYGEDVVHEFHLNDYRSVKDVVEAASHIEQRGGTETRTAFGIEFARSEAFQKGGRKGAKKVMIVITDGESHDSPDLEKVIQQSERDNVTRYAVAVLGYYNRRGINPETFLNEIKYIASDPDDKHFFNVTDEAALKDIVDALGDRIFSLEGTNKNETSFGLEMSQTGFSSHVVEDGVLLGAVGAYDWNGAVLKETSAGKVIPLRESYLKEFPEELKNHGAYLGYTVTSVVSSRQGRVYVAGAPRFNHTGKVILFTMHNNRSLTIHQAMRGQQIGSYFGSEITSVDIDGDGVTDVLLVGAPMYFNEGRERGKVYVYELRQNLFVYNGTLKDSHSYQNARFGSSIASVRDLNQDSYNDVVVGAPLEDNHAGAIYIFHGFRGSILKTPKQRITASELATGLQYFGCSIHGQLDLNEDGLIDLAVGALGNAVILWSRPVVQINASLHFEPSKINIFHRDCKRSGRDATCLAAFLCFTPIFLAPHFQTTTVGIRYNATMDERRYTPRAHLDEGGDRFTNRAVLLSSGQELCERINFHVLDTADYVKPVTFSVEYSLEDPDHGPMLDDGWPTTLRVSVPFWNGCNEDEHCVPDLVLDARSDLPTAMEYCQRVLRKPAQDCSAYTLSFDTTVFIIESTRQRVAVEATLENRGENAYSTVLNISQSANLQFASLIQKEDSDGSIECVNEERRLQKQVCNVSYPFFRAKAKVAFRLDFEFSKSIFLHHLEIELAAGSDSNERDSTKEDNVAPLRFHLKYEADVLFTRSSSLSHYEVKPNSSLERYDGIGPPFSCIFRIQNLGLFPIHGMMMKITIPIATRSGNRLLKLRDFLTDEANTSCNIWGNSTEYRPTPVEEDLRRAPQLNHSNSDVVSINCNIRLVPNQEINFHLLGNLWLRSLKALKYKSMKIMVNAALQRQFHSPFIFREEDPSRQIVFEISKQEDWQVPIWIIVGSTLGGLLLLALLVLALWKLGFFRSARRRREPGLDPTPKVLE
Method: 200,000 cells (wild-type CHO-K1 cells or CHO-K1 cells expressing human α11) were incubated with each antibody at desired concentrations in FACS buffer for 30 min at 4° C. Then, the cells were washed with FACS buffer and incubated with secondary antibody at 1:100 dilution for 30 minutes at 4° C. Cells were then washed and fixed with 1% PFA in PBS for 20 minutes at room temperature; washed again and read on a cytometer in FACS buffer.
Since integrins are large, transmembrane receptors that exist in different conformational shapes, experiments were performed to confirm that the novel antibodies also bound cell-expressed α11β1. A CHO-K1 cell line that endogenously expressed high levels of the β1 subunit was engineered to stably express human α11 (CHO-K1 hu α11).
Binding EC50 was estimated using data from Fluorescence-activated cell sorting (FACS) performed with CHO-K1 hu α11β1 cells.

[2] = system: Human Pulmonary Fibroblasts; test: Fibroblast-to-Myofibroblasts Transition (FMT), αSMA expression; assay type: cell-based; details: for inhibition of αSMA expression / FMT: TGFβ-induced FMT; for Inhibition of FMT: Yes/No
Method: Human Pulmonary Fibroblasts (ScienCell) were cultured in complete Fibroblast Growth Medium (ScienCell) until 80% confluent. Cells were washed and harvested using Accutase. Cells were seeded onto tissue culture-treated 96 well plates at 20,000 cells/well in complete Fibroblast Growth Medium. After 24 hours, cells were washed and starved in serum reduced medium for an additional 24 hours. After starvation, cells were treated with TGFβ-1 (R&D Systems) with or without anti-α11 antibodies. A polyclonal rabbit anti-human α11 antibody was used as a positive control. Appropriate IgG isotype controls were also included. After 48 hours, cells were harvested, fixed, permeabilized and stained with AlexaFluor488 Labeled Anti-αSMA (α-smooth muscle actin) (Invitrogen). Cells were acquired on a FACS Verse (Benton Dickson) to determine expression levels of αSMA. Data were analyzed by gating on single cells and determining the geometric Mean Fluorescence Intensity (gMFI) in the FITC channel for each sample. gMFI for each sample was normalized to the untreated control and presented as % inhibition.
In addition to the binding abilities described above, it is important for an anti-α11β1 antibody to inhibit the fibroblast-to-myofibroblast transition (FMT). It is now appreciated that myofibroblasts are a heterogeneous cell population, existing in different activation states, with the main function of producing and contracting collagen extracellular matrix (ECM). FMT is a multi-step event that is controlled by a changing mechanical environment in tissues undergoing repair. TGFβ is one of the potent factors that potentiates this process and alpha smooth muscle actin (αSMA) is one of the main markers that becomes overexpressed when fibroblasts are undergoing the transition to becoming myofibroblasts. The presence of αSMA enhances fibroblast contraction and guides myofibroblast activation through an intracellular feedback loop. Because αSMA is the main molecular marker of myofibroblasts, the ability of the novel anti-α11β1 mAbs to inhibit αSMA expression in TGFβ-induced FMT was tested.

Molecule | binding to mouse α11β1 (mouse α11β1) | Murine α11β1 ELISA (mouse α11β1) | CHO-K1 FACS [1] | inhibition of αSMA expression / FMT [2] | Inhibition of FMT [2] | CHO-K1 binding EC50 (in words) [1]
B1 | cross-reacts with mouse α11β1 | Yes | Yes | failed to decrease αSMA expression | No | –
B2 | – | Yes | Yes | only inhibited FMT | Yes | low nanomolar range
B3 | – | No | Yes | – | No | low nanomolar range
B4 | – | No | Yes | only inhibited FMT | Yes | low nanomolar range
B5 | – | Yes | Yes | FMT inhibitors | Yes | not as potent
B6 | – | No | Yes | – | Yes | –
B7 | – | No | Yes | – | Yes | –
B8 | – | Yes | Yes | FMT inhibitors | Yes | not as potent
